Assay results as given in patent US20100279930A1 (published 2010).

Biological target: human Y4 receptor (human, UniProt P50391 1-375)
Assay: 125I-PP displacement

Chain of human Y4 receptor (P50391 whole entry): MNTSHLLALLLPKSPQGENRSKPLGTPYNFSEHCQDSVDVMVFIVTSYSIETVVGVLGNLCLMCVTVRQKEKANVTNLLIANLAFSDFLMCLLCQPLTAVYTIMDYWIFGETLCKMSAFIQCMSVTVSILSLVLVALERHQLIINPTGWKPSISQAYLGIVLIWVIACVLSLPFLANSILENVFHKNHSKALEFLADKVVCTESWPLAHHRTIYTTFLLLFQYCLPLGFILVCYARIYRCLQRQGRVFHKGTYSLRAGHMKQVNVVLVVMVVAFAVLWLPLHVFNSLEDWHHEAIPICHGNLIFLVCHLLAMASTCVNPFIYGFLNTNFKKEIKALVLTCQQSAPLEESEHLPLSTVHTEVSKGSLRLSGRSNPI

Row | IC50 | Binder
1 | 0.091 nM | GAPLEPEYPGDNATPEQLARYAAALRRYINKLTRPRY [4060356]
2 | 0.046 nM | GAPLEPEYPGDNATPEQKARYAAALRRYINKLTRPRY [4060309]
3 | 0.106 nM | PAPLEPEYPGDNATPEQKAKYAAALRRYINHLTRPRY [4060275]
4 | 0.114 nM | GAPLEPEYPGDNATPEQMAKYAAALRRYIDKLTRPRY [4060896]
5 | 0.091 nM | AAPLEPTYPGDNATPEQMARYAAALRRYIDKLTRPRY [4060695]
6 | 0.036 nM | GAPLEPEYPGDNATPEQKAKYAAALRRYINRLTRPRY [4060301]
7 | 0.062 nM | PAPLEPEYPGDNATPEQKAKYAAALRRYINRLTRPRY [4060278]
8 | 0.137 nM | GAPLEPVYPGDNATPEQLAKYAAELRRYIDKLTRPRY [4060897]
9 | 0.08 nM | GAPLEPEYPGDNATPEQMARYAAALRRYINHLTRPRY [4060358]
10 | 0.099 nM | GAPLEPEYPGDDATPEQKARYAAALRRYINKLTRPRY [4060311]
11 | 0.099 nM | GAPLEPEYPGDNATPEEMARYAAALRRYINKLTRPRY [4060359]
12 | 0.131 nM | YAPLEPEYPGDDATPQQKARYAAELRRYIDKLTRPRY [4060682]
13 | 0.136 nM | YAPLEPEAPGDDATPQQKARYAAELRRYINKLTRPRY [4060681]
14 | 0.055 nM | AAPLEPEYPGDDATPQQKARYAAELRRYINKLTRPRY [4060686]
15 | 0.11 nM | PAPLEPKYPGDNATPEQLAKYAAELRRYIDKLTRPRY [4060893]
16 | 0.174 nM | GAPLEPVYPGDNATPEQKAKYAAELRRYIDKLTRPRY [4061084]
17 | 0.107 nM | PAPLEPVYPGDNATPEQKAKYAAELRRYIDRLTRPRY [4061091]
18 | 0.218 nM | PAPLEPVYPGDNATPEQKAKYAAELRRYIDHLTRPRY [4061087]
19 | 0.1 nM | GAPLEPVYPGDNATPEQKAKYAAELRRYIDRLTRPRY [4061090]
20 | 0.213 nM | GAPLEPVYPGDNATPEQKAKYAAELRRYIDHLTRPRY [4061086]
21 | 0.064 nM | PAPLEPTYPGDNATPEQKAKYYSELRRYINKLTRPRY [4060280]
22 | 0.153 nM | GAPLEPEAPGDNATPEQMAKYYSELRRYINKLTRPRY [4060691]

Row | IC50 | Binder
23 | 0.098 nM | GAPLEPTYPGDDATPEQLAKYYSELRRYINHLTRPRY [4060306]
24 | 0.124 nM | YAPLEPTYPGDNATPEQKAKYAAELRRYIDKLTRPRY [4061083]
25 | 0.131 nM | GAPLEPTYPGDNATPEQLAKYYSELRRYIDKLTRPRY [4060606]
26 | 0.067 nM | GAPLEPTYPGDNATPEQKAKYYSELRRYINKLTRPRY [4060279]
27 | 0.109 nM | PAPLEPKAPGDNATPEQMAKYYSELRRYIDKLTRPRY [4060680]
28 | 0.073 nM | GAPLEPTYPGDNATPEQLAKYYSELRRYINKLTRPRF [4060283]
29 | 0.14 nM | PAPLEPKYPGDNATPEQLAKYYSELRRYIDKLTRPRY [4060605]
30 | 0.102 nM | PAPLEPKYPGDNATPEQMAKYYSELRRYIDRLTRPRY [4060603]
31 | 0.084 nM | PAPLEPTYPGDDATPEQLAKYYSELRRYINKLTRPRY [4060314]
32 | 0.097 nM | GAPLEPTYPGDNATPEELAKYYSELRRYINKLTRPRY [4060315]
33 | 0.073 nM | GAPLEPTYPGDNATPEQLAKYYSELRRYINRLTRPRY [4060276]
34 | 0.126 nM | PAPLEPKYPGDNATPEEMAKYYSELRRYIDKLTRPRY [4060894]
35 | 0.055 nM | PAPLEPTYPGDNATPEQLAKYYSELRRYINKLTRPRF [4060284]
36 | 0.173 nM | PAPLEPKYPGDNATPEQMAKYYSELRRYIDHLTRPRY [4060602]
37 | 0.076 nM | PAPLEPTYPGDNATPEQLAKYYSELRRYINRLTRPRY [4060277]
38 | 0.121 nM | PAPLEPHYPGDNATPEEMAKYYSELRRYIDKLTRPRY [4060895]
39 | 0.159 nM | PAPLEPVYPGDNATPEQKAKYAAELRRYIDKLTRPRY [4061085]
40 | 0.158 nM | AAPLEPTYPGDNATPEQKAKYAAELRRYIDKLTRPRY [4061082]
41 | 0.172 nM | GAPLEPEAPGDNATPEQMAKYYSELRRYIDKLTRPRY [4060693]
42 | 0.121 nM | GAPLEPVYPGDNATPEQMARYYSELRRYIDKLTRPRY [4060604]
43 | 0.171 nM | GAPLEPVAPGDNATPEQMARYYSELRRYIDKLTRPRY [4060690]
